Assay results taken from paper PMC3689846.

Columns and labels:
[1] = biological target: eOD-GT1 (HIV-1 strain HxB2); assay: SPR
[2] = biological target: Core.BaL-GT1 (germline-targeting variant of core gp120) (HIV-1 strain BaL (from the name)); assay: SPR

B1: NIH45-46 (mature) (antibody, V domains shown)
VH: QVRLSQSGGQMKKPGESMRLSCRASGYEFLNCPINWIRLAPGRRPEWMGWLKPRGGAVNYARKFQGRVTMTRDVYSDTAFLELRSLTSDDTAVYFCTRGKYCTARDYYNWDFEHWGRGAPVTVSS
VL: EIVLTQSPATLSLSPGETAIISCRTSQSGSLAWYQQRPGQAPRLVIYSGSTRAAGIPDRFSGSRWGADYNLSISNLESGDFGVYYCQQYEFFGQGTKVQVD
Kd [1]: 3 nM

B2: 12A12 (mature) (antibody, V domains shown)
VH: SQHLVQSGTQVKKPGASVRISCQASGYSFTDYVLHWWRQAPGQGLEWMGWIKPVYGARNYARRFQGRINFDRDIYREIAFMDLSGLRSDDTALYFCARDGSGDDTSWHLDPWGQGTLVIVSA
VL: DIQMTQSPSSLSASVGDRVTITCQAGQGIGSSLQWYQQKPGKAPKLLVHGASNLHRGVPSRFSGSGFHTTFSLTISGLQRDDFATYFCAVLEFFGPGTKVEIK
Kd [2]: 1 nM
